Where “and” joins values, the source holds several entries; their conditions need not be identical. Equal entries are not always repeated.

The record followed here is patent publication US20190328900A1 (GlaxoSmithKline, published 2019).

The labels stand for the following.
B1: VRC01-SA antibody-drug conjugate (antibody, human IgG1, V domains shown)
VH: QVQLVQSGGQMKKPGESMRISCRASGYEFIDCTLNWIRLAPGKRPEWMGWLKPRGGAVNYARPLQGRVTMTRDVYSDTAFLELRSLTVDDTAVYFCTRGKNCDYNWDFEHWGRGTPVIVSS
VL: EIVLTQSPGTLSLSPGETAIISCRTSQYGSLAWYQQRPGQAPRLVIYSGSTRAAGIPDRFSGSRWGPDYNLTISNLESGDFGVYYCQQYEFFGQGTKVQVDI
modifications: payload-linker SA conjugated to lysines; sites and chain not stated; payload-linker SA (short linker payload A, succinimidyl ester) conjugated to lysines; sites and chain not stated; MS DAR 3.0
B2: VRC01 broadly neutralizing antibody (antibody, human IgG1, V domains shown)
VH: QVQLVQSGGQMKKPGESMRISCRASGYEFIDCTLNWIRLAPGKRPEWMGWLKPRGGAVNYARPLQGRVTMTRDVYSDTAFLELRSLTVDDTAVYFCTRGKNCDYNWDFEHWGRGTPVIVSS
VL: EIVLTQSPGTLSLSPGETAIISCRTSQYGSLAWYQQRPGQAPRLVIYSGSTRAAGIPDRFSGSRWGPDYNLTISNLESGDFGVYYCQQYEFFGQGTKVQVDI
B3: VRC01-LA antibody-drug conjugate (antibody, human IgG1, V domains shown)
VH: QVQLVQSGGQMKKPGESMRISCRASGYEFIDCTLNWIRLAPGKRPEWMGWLKPRGGAVNYARPLQGRVTMTRDVYSDTAFLELRSLTVDDTAVYFCTRGKNCDYNWDFEHWGRGTPVIVSS
VL: EIVLTQSPGTLSLSPGETAIISCRTSQYGSLAWYQQRPGQAPRLVIYSGSTRAAGIPDRFSGSRWGPDYNLTISNLESGDFGVYYCQQYEFFGQGTKVQVDI
modifications: payload-linker LA conjugated to lysines; sites and chain not stated; payload-linker LA (long linker payload A, succinimidyl ester) conjugated to lysines; sites and chain not stated; MS DAR 3.4
B4: VRC01-LB antibody-drug conjugate (antibody, human IgG1, V domains shown)
VH: QVQLVQSGGQMKKPGESMRISCRASGYEFIDCTLNWIRLAPGKRPEWMGWLKPRGGAVNYARPLQGRVTMTRDVYSDTAFLELRSLTVDDTAVYFCTRGKNCDYNWDFEHWGRGTPVIVSS
VL: EIVLTQSPGTLSLSPGETAIISCRTSQYGSLAWYQQRPGQAPRLVIYSGSTRAAGIPDRFSGSRWGPDYNLTISNLESGDFGVYYCQQYEFFGQGTKVQVDI
modifications: payload-linker LB conjugated to lysines; sites and chain not stated; payload-linker LB (long linker payload B, succinimidyl ester) conjugated to lysines; sites and chain not stated; MS DAR 3.8
B5: VRC01-SB antibody-drug conjugate (antibody, human IgG1, V domains shown)
VH: QVQLVQSGGQMKKPGESMRISCRASGYEFIDCTLNWIRLAPGKRPEWMGWLKPRGGAVNYARPLQGRVTMTRDVYSDTAFLELRSLTVDDTAVYFCTRGKNCDYNWDFEHWGRGTPVIVSS
VL: EIVLTQSPGTLSLSPGETAIISCRTSQYGSLAWYQQRPGQAPRLVIYSGSTRAAGIPDRFSGSRWGPDYNLTISNLESGDFGVYYCQQYEFFGQGTKVQVDI
modifications: payload-linker SB conjugated to lysines; sites and chain not stated; payload-linker SB (short linker payload B, succinimidyl ester) conjugated to lysines; sites and chain not stated; MS DAR 3.9
B6: VRC01-LA-SB dual-payload antibody-drug conjugate (antibody, human IgG1, V domains shown)
VH: QVQLVQSGGQMKKPGESMRISCRASGYEFIDCTLNWIRLAPGKRPEWMGWLKPRGGAVNYARPLQGRVTMTRDVYSDTAFLELRSLTVDDTAVYFCTRGKNCDYNWDFEHWGRGTPVIVSS
VL: EIVLTQSPGTLSLSPGETAIISCRTSQYGSLAWYQQRPGQAPRLVIYSGSTRAAGIPDRFSGSRWGPDYNLTISNLESGDFGVYYCQQYEFFGQGTKVQVDI
modifications: payload-linkers LA and SB conjugated to lysines; sites and chain not stated; payload-linkers LA and SB conjugated to lysines; sites and chain not stated; MS DAR 1.6 (LA) and 1.3
B7: VRC01-LA-LB dual-payload antibody-drug conjugate (antibody, human IgG1, V domains shown)
VH: QVQLVQSGGQMKKPGESMRISCRASGYEFIDCTLNWIRLAPGKRPEWMGWLKPRGGAVNYARPLQGRVTMTRDVYSDTAFLELRSLTVDDTAVYFCTRGKNCDYNWDFEHWGRGTPVIVSS
VL: EIVLTQSPGTLSLSPGETAIISCRTSQYGSLAWYQQRPGQAPRLVIYSGSTRAAGIPDRFSGSRWGPDYNLTISNLESGDFGVYYCQQYEFFGQGTKVQVDI
modifications: payload-linkers LA and LB conjugated to lysines; sites and chain not stated; payload-linkers LA and LB conjugated to lysines; sites and chain not stated; MS DAR 1.6 (LA) and 1.2 (LB)

One assay has as its target T1, HIV gp160 envelope glycoprotein on pseudotyped virus (clone not named) (HIV). In words: cell-based or functional assay.
Consider B1, for which the “IC50 (N = 1), pseudotyped virus (PSV) infection, luciferase” value (shortened to “IC50 (N = 1), pseudotyped virus”) was ~2.7 nM and 0.418 µg/mL; the “IC50 (N = 2), pseudotyped virus (PSV) infection, luciferase” value (“IC50 (N = 2), pseudotyped virus” for short) was 0.226 µg/mL and ~1.5 nM.
B2: the “IC50 (N = 1), pseudotyped virus” value was roughly 667 nM and the “IC50 (N = 2), pseudotyped virus” value is roughly 667 nM.
As for B3, the “IC50 (N = 1), pseudotyped virus” value was 0.0753 µg/mL and ~0.5 nM; the “IC50 (N = 2), pseudotyped virus” value is 0.0413 µg/mL and ~0.27 nM.
As to B4, the “IC50 (N = 1), pseudotyped virus” value is 0.526 µg/mL and ~3.4 nM; the “IC50 (N = 2), pseudotyped virus” value was roughly 1.9 nM.
Turning to B5, the “IC50 (N = 1), pseudotyped virus” value was 0.617 µg/mL and ~4 nM; the “IC50 (N = 2), pseudotyped virus” value amounted to 0.772 µg/mL.

A further assay deals with T1, HIV gp160 envelope glycoprotein on …. In words: cell-based or functional assay. This is another data set of the same source.
For the molecule B6, the “IC50 (N = 1), pseudotyped virus” value is 0.104 µg/mL and ~0.7 nM; the “IC50 (N = 2), pseudotyped virus” value is 0.106 µg/mL and ~0.7 nM.
B7: the “IC50 (N = 1), pseudotyped virus” value came out at 0.154 µg/mL; the “IC50 (N = 2), pseudotyped virus” value was 0.107 µg/mL and ~0.7 nM.
